Test results as given in patent EP1516629B1.

T1: human CD11a (human) (UniProt P20701)
T1 sequence (looked up): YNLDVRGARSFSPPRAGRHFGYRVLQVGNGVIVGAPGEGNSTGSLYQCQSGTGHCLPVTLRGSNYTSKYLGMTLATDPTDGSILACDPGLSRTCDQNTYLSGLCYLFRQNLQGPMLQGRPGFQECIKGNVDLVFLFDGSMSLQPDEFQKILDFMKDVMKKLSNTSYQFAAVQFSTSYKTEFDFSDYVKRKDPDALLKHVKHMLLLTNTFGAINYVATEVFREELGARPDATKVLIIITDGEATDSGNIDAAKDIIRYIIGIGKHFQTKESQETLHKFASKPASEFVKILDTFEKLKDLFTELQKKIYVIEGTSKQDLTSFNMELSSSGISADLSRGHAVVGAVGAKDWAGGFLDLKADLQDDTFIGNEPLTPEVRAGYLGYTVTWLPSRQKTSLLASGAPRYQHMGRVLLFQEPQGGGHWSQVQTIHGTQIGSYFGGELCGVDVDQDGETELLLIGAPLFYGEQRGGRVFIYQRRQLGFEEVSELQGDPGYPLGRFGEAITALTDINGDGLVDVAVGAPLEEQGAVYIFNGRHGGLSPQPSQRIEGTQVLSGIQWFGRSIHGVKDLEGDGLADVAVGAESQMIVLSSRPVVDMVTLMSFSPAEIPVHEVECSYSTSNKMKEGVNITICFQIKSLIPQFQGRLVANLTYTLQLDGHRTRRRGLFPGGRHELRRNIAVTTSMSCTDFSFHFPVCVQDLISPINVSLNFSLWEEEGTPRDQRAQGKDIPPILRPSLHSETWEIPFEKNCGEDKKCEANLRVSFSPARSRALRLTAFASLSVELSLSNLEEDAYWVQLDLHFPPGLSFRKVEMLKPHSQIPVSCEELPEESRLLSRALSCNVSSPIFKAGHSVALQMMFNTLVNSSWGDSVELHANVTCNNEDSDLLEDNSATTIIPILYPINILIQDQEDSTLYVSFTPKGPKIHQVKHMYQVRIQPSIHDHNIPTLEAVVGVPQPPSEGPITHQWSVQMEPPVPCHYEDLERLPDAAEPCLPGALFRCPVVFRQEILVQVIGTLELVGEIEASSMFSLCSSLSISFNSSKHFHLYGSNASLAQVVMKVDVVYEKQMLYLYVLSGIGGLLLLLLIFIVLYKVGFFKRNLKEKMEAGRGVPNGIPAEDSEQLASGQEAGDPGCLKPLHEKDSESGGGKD


Target: T1, human CD11a (human)
Experiment: FACScan, Jurkat cells

Binder	Var.EC50/HuIgG1 EC50	EC50 F(ab)/EC50 F(ab)-2	fold improvement in binding over F(ab)-2	Variant EC50/HulgG1 EC50	fold reduction in binding against F(ab)-2
H3B variant IgG1 (antibody, V domains shown) VH: EVQLVESGGGLVQPGGSLRLSCAASGYSFTGHWMNWVRQAPGKGLEWVGMIHPSDSETRYNQKFKDRFTISVDKSKNTLYLQMNSLRAEDTAVYYCARGIYFYGAAAFDYWGQGTLVTVSS VL: DIQMTQSPSSLSASVGDRVTITCRASKTISKYLAWYQQKPGKAPKLLIYSGSTLQSGVPSRFSGSGSGTDFTLTISSLQPEDFATYYCQQHNEYPLTFGQGTKVEIK	34.7	–	–	–	–
humanized MHM24 F(ab)-5 (Fab, V domains shown) VH: EVQLVESGGGLVQPGGSLRLSCAASGFSFTGHWMNWVRQAPGKGLEWVGMIHPSDSETRYNQKFKDRFTISVDKSSSTLYLQMNSLRAEDTAVYYCARGIYFYGTTYFDYWGQGTLVTVSS VL: DIQMTQSPSSLSASVGDRVTITCRASKTISKYLAWYQQKPGKAPKLLIYSGSSLESGVPSRFSGSGSGTDFTLTISSLQPEDFATYYCQQHNEYPLTFGQGTKVEIK	–	0.043	23 fold	–	–
HisH32Ala variant IgG1 (antibody, V domains shown) VH: EVQLVESGGGLVQPGGSLRLSCAASGYSFTGAWMNWVRQAPGKGLEWVGMIHPSDSETRYNQKFKDRFTISVDKSKNTLYLQMNSLRAEDTAVYYCARGIYFYGTTYFDYWGQGTLVTVSS VL: DIQMTQSPSSLSASVGDRVTITCRASKTISKYLAWYQQKPGKAPKLLIYSGSTLQSGVPSRFSGSGSGTDFTLTISSLQPEDFATYYCQQHNEYPLTFGQGTKVEIK	2.3	–	–	–	–
LysH73Ala variant IgG1 (antibody, V domains shown) VH: EVQLVESGGGLVQPGGSLRLSCAASGYSFTGHWMNWVRQAPGKGLEWVGMIHPSDSETRYNQKFKDRFTISVDASKNTLYLQMNSLRAEDTAVYYCARGIYFYGTTYFDYWGQGTLVTVSS VL: DIQMTQSPSSLSASVGDRVTITCRASKTISKYLAWYQQKPGKAPKLLIYSGSTLQSGVPSRFSGSGSGTDFTLTISSLQPEDFATYYCQQHNEYPLTFGQGTKVEIK	5.2	–	–	–	–
SerH55Asn variant IgG1 (antibody, V domains shown) VH: EVQLVESGGGLVQPGGSLRLSCAASGYSFTGHWMNWVRQAPGKGLEWVGMIHPSDNETRYNQKFKDRFTISVDKSKNTLYLQMNSLRAEDTAVYYCARGIYFYGTTYFDYWGQGTLVTVSS VL: DIQMTQSPSSLSASVGDRVTITCRASKTISKYLAWYQQKPGKAPKLLIYSGSTLQSGVPSRFSGSGSGTDFTLTISSLQPEDFATYYCQQHNEYPLTFGQGTKVEIK	2.1	–	–	–	–
H1 variant IgG1 (antibody, V domains shown) VH: EVQLVESGGGLVQPGGSLRLSCAASGYAFAGAWMNWVRQAPGKGLEWVGMIHPSDSETRYNQKFKDRFTISVDKSKNTLYLQMNSLRAEDTAVYYCARGIYFYGTTYFDYWGQGTLVTVSS VL: DIQMTQSPSSLSASVGDRVTITCRASKTISKYLAWYQQKPGKAPKLLIYSGSTLQSGVPSRFSGSGSGTDFTLTISSLQPEDFATYYCQQHNEYPLTFGQGTKVEIK	5.9	–	–	–	–

Results, then the binder that gave them:

Var.EC50/HuIgG1 EC50	EC50 F(ab)/EC50 F(ab)-2	fold improvement in binding over F(ab)-2	Variant EC50/HulgG1 EC50	fold reduction in binding against F(ab)-2	Binder
1.1	–	–	–	–	L2 variant IgG1 (antibody, V domains shown) VH: EVQLVESGGGLVQPGGSLRLSCAASGYSFTGHWMNWVRQAPGKGLEWVGMIHPSDSETRYNQKFKDRFTISVDKSKNTLYLQMNSLRAEDTAVYYCARGIYFYGTTYFDYWGQGTLVTVSS VL: DIQMTQSPSSLSASVGDRVTITCRASKTISKYLAWYQQKPGKAPKLLIYAGAALQSGVPSRFSGSGSGTDFTLTISSLQPEDFATYYCQQHNEYPLTFGQGTKVEIKR
5	–	–	–	–	HisH52Ser variant IgG1 (antibody, V domains shown) VH: EVQLVESGGGLVQPGGSLRLSCAASGYSFTGHWMNWVRQAPGKGLEWVGMISPSDSETRYNQKFKDRFTISVDKSKNTLYLQMNSLRAEDTAVYYCARGIYFYGTTYFDYWGQGTLVTVSS VL: DIQMTQSPSSLSASVGDRVTITCRASKTISKYLAWYQQKPGKAPKLLIYSGSTLQSGVPSRFSGSGSGTDFTLTISSLQPEDFATYYCQQHNEYPLTFGQGTKVEIK
6.9	–	–	–	–	SerH28Ala variant IgG1 (antibody, V domains shown) VH: EVQLVESGGGLVQPGGSLRLSCAASGYAFTGHWMNWVRQAPGKGLEWVGMIHPSDSETRYNQKFKDRFTISVDKSKNTLYLQMNSLRAEDTAVYYCARGIYFYGTTYFDYWGQGTLVTVSS VL: DIQMTQSPSSLSASVGDRVTITCRASKTISKYLAWYQQKPGKAPKLLIYSGSTLQSGVPSRFSGSGSGTDFTLTISSLQPEDFATYYCQQHNEYPLTFGQGTKVEIK
24.9	–	–	–	–	H2C11 variant IgG1 (antibody, V domains shown) VH: EVQLVESGGGLVQPGGSLRLSCAASGYSFTGHWMNWVRQAPGKGLEWVGMIAPASSNTRYNQKFKDRFTISVDKSKNTLYLQMNSLRAEDTAVYYCARGIYFYGTTYFDYWGQGTLVTVSS VL: DIQMTQSPSSLSASVGDRVTITCRASKTISKYLAWYQQKPGKAPKLLIYSGSTLQSGVPSRFSGSGSGTDFTLTISSLQPEDFATYYCQQHNEYPLTFGQGTKVEIK
–	1.2	–	–	–	humanized MHM24 F(ab)-3 (Fab, V domains shown) VH: EVQLVESGGGLVQPGGSLRLSCAASGFSFTGHWMNWVRQAPGKGLEWVGMIHPSDSETRYNQKFKDRATISVDNSKNTLYLQMNSLRAEDTAVYYCARGIYFYGTTYFDYWGQGTLVTVSS VL: DIQMTQSPSSLSASVGDRVTITCRASKTISKYLAWYQQKPGKAPKLLIYSGSSLESGVPSRFSGSGSGTDFTLTISSLQPEDFATYYCQQHNEYPLTFGQGTKVEIK
–	–	–	16	–	AspH54Glu variant IgG1 (antibody, V domains shown) VH: EVQLVESGGGLVQPGGSLRLSCAASGYSFTGHWMNWVRQAPGKGLEWVGMIHPSESETRYNQKFKDRFTISVDKSKNTLYLQMNSLRAEDTAVYYCARGIYFYGTTYFDYWGQGTLVTVSS VL: DIQMTQSPSSLSASVGDRVTITCRASKTISKYLAWYQQKPGKAPKLLIYSGSTLQSGVPSRFSGSGSGTDFTLTISSLQPEDFATYYCQQHNEYPLTFGQGTKVEIK
–	0.004	–	–	–	humanized MHM24 F(ab)-8 (Fab, V domains shown) VH: EVQLVESGGGLVQPGGSLRLSCAASGYSFTGHWMNWVRQAPGKGLEWVGMIHPSDSETRYNQKFKDRFTISVDKSKNTLYLQMNSLRAEDTAVYYCARGIYFYGTTYFDYWGQGTLVTVSS VL: DIQMTQSPSSLSASVGDRVTITCRASKTISKYLAWYQQKPGKAPKLLIYSGSTLQSGVPSRFSGSGSGTDFTLTISSLQPEDFATYYCQQHNEYPLTFGQGTKVEIKR
–	2.9	–	–	3 fold	humanized MHM24 F(ab)-4 (Fab, V domains shown) VH: EVQLVESGGGLVQPGGSLRLSCAASGFSFTGHWMNWVRQAPGKGLEWVGMIHPSDSETRYNQKFKDRFTISRDNSKNTLYLQMNSLRAEDTAVYYCARGIYFYGTTYFDYWGQGTLVTVSS VL: DIQMTQSPSSLSASVGDRVTITCRASKTISKYLAWYQQKPGKAPKLLIYSGSSLESGVPSRFSGSGSGTDFTLTISSLQPEDFATYYCQQHNEYPLTFGQGTKVEIK
11.8	–	–	–	–	TyrL94Ala variant IgG1 (antibody, V domains shown) VH: EVQLVESGGGLVQPGGSLRLSCAASGYSFTGHWMNWVRQAPGKGLEWVGMIHPSDSETRYNQKFKDRFTISVDKSKNTLYLQMNSLRAEDTAVYYCARGIYFYGTTYFDYWGQGTLVTVSS VL: DIQMTQSPSSLSASVGDRVTITCRASKTISKYLAWYQQKPGKAPKLLIYSGSTLQSGVPSRFSGSGSGTDFTLTISSLQPEDFATYYCQQHNEAPLTFGQGTKVEIKR
